The experiment relates to OVA-specific antibodies in serum. The experiment is described as follows: Immune adjuvant activity with ovalbumin (OVA), serum antibody ELISA. The experiment is classed as in vivo, mice. The settings on record: OVA alone, intramuscular, Day 0, 7, 14, serum Day 21.

B1: ovalbumin (protein, UniProt P01012 2-386, looked up)
Ovalbumin: GSIGAASMEFCFDVFKELKVHHANENIFYCPIAIMSALAMVYLGAKDSTRTQINKVVRFDKLPGFGDSIEAQCGTSVNVHSSLRDILNQITKPNDVYSFSLASRLYAEERYPILPEYLQCVKELYRGGLEPINFQTAADQARELINSWVESQTNGIIRNVLQPSSVDSQTAMVLVNAIVFKGLWEKAFKDEDTQAMPFRVTEQESKPVQMMYQIGLFRVASMASEKMKILELPFASGTMSMLVLLPDEVSGLEQLESIINFEKLTEWTSSNVMEERKIKVYLPRMKMEEKYNLTSVLMAMGITDVFSSSANLSGISSAESLKISQAVHAAHAEINEAGREVVGSAEAGVDAASVSEEFRADHPFLFCIKHIATNAVLFFGRCVSP
notes: Antigen ovalbumin (OVA) used for immunization of mice
Take B1: the “protective humoral immune response after immunization” value was “did not generate a protective humoral immune response”.

The record behind these values is patent US20250248992A1, “INNATE IMMUNE-ACTIVATING DRUG AND USE THEREOF” (LUODA BIOPHARMA (SUZHOU) CO., LTD., priority 2021, published 2025).
